Reference: patent US20140171373

Key:
[1] = target: human tauP301L, full-length (from Tg4510 / rTg4510 mouse brain), P10636
[2] = target: tauD314E, P10636
[3] = target: human wild-type tau (tauWT), full-length, P10636
[4] = target: tauD314G, P10636
[5] = target: T1, z-VAD-fmk (benzyloxycarbonyl-Val-Ala-Asp-fluoromethylketone)
T1 chain: VAD

human wild-type tau (tauWT), full-length, P10636, sequence (P10636 other isoform, or with tags, fused parts or gaps): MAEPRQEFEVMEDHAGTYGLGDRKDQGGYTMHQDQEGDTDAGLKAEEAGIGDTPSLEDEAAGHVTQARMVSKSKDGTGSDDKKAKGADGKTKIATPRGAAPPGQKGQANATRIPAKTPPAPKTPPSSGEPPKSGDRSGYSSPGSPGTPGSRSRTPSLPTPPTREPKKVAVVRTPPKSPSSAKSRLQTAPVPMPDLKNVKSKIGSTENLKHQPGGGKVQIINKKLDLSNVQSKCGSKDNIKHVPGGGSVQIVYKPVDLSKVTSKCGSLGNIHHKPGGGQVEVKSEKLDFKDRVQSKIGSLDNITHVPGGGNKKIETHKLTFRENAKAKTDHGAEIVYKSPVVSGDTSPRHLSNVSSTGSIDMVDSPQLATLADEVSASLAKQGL
human tauP301L, full-length (from Tg4510 / rTg4510 mouse brain), P10636, sequence (P10636 whole entry, looked up): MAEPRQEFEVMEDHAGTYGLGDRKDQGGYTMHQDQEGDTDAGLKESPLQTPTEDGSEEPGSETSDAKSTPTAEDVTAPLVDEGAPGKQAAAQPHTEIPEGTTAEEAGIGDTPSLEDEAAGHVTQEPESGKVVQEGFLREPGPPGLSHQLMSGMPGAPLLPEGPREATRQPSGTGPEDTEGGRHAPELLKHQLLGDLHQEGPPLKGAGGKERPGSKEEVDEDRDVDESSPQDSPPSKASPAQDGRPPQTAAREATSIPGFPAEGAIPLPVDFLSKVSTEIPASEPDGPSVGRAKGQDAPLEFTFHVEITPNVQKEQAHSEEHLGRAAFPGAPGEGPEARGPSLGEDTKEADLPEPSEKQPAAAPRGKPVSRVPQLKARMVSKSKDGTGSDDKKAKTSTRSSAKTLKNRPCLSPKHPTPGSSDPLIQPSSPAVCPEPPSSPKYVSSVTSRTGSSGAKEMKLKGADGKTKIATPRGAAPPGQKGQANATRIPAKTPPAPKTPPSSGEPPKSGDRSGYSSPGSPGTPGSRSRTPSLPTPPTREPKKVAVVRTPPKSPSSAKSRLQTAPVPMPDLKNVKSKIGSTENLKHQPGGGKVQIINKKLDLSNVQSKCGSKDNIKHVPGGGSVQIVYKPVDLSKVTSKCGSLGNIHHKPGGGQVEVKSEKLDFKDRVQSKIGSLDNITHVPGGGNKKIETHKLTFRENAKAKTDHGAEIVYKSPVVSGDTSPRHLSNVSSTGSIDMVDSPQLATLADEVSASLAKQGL
tauD314G, P10636, sequence (P10636 whole entry, looked up): as above
tauD314E, P10636, sequence (P10636 whole entry, looked up): as above

B1: caspase-2 (protein)
chain 1: GPVCLQVKPCTPEFYQTHFQLAYRLQSRPRGLALVLSNVHFTGEKELEFRSGGDVDHSTLVTLFKLLGYDVHVLCDQTAQEMQEKLQNFAQLPAHRVTDSCIVALLSHGVEGAIYGVDGKLLQLQEVFQLFDNANCPSLQNKPKMFFIQACRGDET
chain 2: GKNHAGSPGCEESDAGKEKLPKMRLPTRSDMICGYACLKGTAAMRNTKRGSWYIEALAQVFSERACDMHVADMLVKVNALIKDREGYAPGTEFHRCKEMSEYCSTLCRHLYLFPGHPPT
For B1, the “35 kDa fragment on Tau-13 immunoblot after incubation with the caspase” value [1] was “a 35 kDa fragment generated by co-incubating caspase-2 with full-length tau proteins purified from (A) brain lysates of Tg4510 mice expressing human tauP301L”, the “35 kDa fragment after incubation with recombinant caspase-2” value (shortened to “35 kDa fragment after incubation”) [2] was “generated a 35 kDa fragment only in the wild-type tau reaction (tauD314E: none)” and the “35 kDa fragment after incubation” value [3] was “generated a 35 kDa fragment only in the wild-type tau reaction that comigrates with tau truncation mutant ΔC314”. The “35 kDa fragment on Tau-13 immunoblot after incubation with the caspase” value [3] was “a 35 kDa fragment generated by co-incubating caspase-2 with full-length tau proteins purified from ... (B) brain lysates of rTg21221 mice expressing human wild-type tau (tauWT) ... or (C) synthetic human tauWT”, the “35 kDa fragment after incubation” value [4] was “generated a 35 kDa fragment only in the wild-type tau reaction (tauD314G: none)” and the “cleavage of tau by the caspase, Tau-13 immunoblot” value [5] was 50 µM z-VAD-fmk ... (+inhibitor), a general caspase inhibitor, blocked all cleavage. For the same protein, the “cleavage of the FITC peptide substrate, LabChip” value [5] was “Caspase inhibitor blocks caspase-2-mediated cleavage of Asp314 peptide substrate”.
